Article PMC10003451, “Phosphorylated Peptide Derived from the Myosin Phosphatase Target Subunit Is a Novel Inhibitor of Protein Phosphatase-1” (International Journal of Molecular Sciences, 2023)
Where no end group is shown, it is not given here. [ ]: non-standard residue; d: D form. pT = C[C@@H](OP(=O)(O)O)[C@H](N)C(=O)O

What was measured:
[1] = biological target: Flag-MYPT1-PP1c complex (myosin phosphatase holoenzyme) ( | human (endogenous in …, UniProt O14974 1-1030; P62140 1-327); assay: cell-based or functional assay
Flag-MYPT1-PP1c complex (myosin phosphatase holoenzyme) ( | human, sequence (O14974 whole entry, chain 1 of 2): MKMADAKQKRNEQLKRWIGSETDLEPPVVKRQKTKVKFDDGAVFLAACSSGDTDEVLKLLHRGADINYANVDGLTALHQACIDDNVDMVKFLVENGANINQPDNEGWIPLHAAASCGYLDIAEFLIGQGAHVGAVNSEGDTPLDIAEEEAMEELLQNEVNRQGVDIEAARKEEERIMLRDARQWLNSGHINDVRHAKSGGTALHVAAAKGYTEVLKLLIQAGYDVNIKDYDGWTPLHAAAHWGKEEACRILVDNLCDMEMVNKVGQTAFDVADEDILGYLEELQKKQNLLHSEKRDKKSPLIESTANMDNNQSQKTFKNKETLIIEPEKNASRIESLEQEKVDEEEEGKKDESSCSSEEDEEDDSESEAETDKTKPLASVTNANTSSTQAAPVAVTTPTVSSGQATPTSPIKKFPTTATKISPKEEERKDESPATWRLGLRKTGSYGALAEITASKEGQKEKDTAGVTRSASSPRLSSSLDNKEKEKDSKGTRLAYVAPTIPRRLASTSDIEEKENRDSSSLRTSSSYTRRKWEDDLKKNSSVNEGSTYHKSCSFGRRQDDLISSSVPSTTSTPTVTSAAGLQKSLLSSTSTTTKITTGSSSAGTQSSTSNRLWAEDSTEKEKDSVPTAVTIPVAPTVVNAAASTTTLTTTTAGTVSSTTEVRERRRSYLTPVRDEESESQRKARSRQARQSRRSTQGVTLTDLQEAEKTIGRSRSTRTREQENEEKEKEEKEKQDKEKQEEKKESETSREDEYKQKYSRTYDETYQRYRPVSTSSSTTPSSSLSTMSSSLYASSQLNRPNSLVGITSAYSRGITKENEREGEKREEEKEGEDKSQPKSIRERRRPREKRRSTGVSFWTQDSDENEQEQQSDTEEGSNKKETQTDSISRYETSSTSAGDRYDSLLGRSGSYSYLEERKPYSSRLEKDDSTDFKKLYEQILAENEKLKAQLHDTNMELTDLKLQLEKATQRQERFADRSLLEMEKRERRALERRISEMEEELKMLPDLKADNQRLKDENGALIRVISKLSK
Flag-MYPT1-PP1c complex (myosin phosphatase holoenzyme) ( | human, sequence (P62140 whole entry, chain 2 of 2): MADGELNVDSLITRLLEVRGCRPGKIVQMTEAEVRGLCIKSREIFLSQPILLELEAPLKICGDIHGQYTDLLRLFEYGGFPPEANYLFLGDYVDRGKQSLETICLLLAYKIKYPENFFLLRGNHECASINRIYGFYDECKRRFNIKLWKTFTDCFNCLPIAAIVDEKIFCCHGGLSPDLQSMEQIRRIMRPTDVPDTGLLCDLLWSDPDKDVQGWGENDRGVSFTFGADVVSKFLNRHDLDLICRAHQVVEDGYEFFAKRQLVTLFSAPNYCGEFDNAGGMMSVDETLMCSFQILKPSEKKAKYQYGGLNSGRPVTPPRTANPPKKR

[2] = biological target: native catalytic subunit of protein phosphatase-1 (PP1c) from rabbit skeletal muscle (rabbit, UniProt P62139 1-330); assay: cell-based or functional assay
native catalytic subunit of protein phosphatase-1 (PP1c) from rabbit skeletal muscle, sequence (P62139 whole entry): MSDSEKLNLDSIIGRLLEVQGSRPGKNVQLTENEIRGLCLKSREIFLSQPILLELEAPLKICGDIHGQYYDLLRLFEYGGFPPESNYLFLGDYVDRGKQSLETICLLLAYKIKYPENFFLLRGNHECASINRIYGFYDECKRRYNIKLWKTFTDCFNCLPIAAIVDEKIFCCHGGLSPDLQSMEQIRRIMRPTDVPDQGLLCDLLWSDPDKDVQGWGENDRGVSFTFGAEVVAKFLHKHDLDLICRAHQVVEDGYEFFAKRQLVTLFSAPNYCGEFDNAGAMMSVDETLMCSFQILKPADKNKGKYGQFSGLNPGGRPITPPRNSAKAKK

[3] = biological target: T1, recombinant protein phosphatase-1 catalytic subunit alpha (PP1cα) (UniProt P62136 1-330); assay: ITC; MicroCal ITC200; rPP1cα (0.5-2 µM) in the cell, peptide (5-20 µM) in the syringe, 19 injections of 2 µL; 25 mM Tris/HCl pH 8.0, 150 mM NaCl, 1 mM TCEP; 25 °C; one set of sites model; settings: both partners purified
T1 construct: protein phosphatase-1 catalytic subunit, alpha isoform; recombinant; also called rPP1cα; recombinant PP1c; source: E. coli, purified from the bacterial lysate
T1 sequence (P62136 whole entry, canonical isoform): as the sequence (P62139 whole entry) above

[4] = biological target: T1, recombinant protein phosphatase-1 …; assay: MST; label-free (Monolith NT.LabelFree, intrinsic fluorescence of rPP1cα); 16-point two-fold peptide dilution 9.16 nM-300 µM mixed with rPP1cα 2 µM; 25 mM Tris/HCl, 100 mM NaCl, 1 mM DTT, 0.1% PEG 8000, pH 8.0; settings: both partners purified

B1: P-Thr696-MYPT1^690−701 (phosphorylated peptide of the inhibitory region of myosin phosphatase target subunit-1) (peptide)
peptide: RQSRRS[pT]QGVTL
notes: myosin phosphatase target subunit-1 (MYPT1), residues 690-701, phosphorylated at Thr696; no tags; also called R^690QSRRS(pT696)QGVTL^701; P-Thr-MYPT1^690−701; source: synthetic peptide, bought: Pepmic
- IC50 of inhibition of the phosphatase activity of Flag-MYPT1-PP1c with 32P-MLC20 substrate [1]: 12.2 µM
- IC50 of inhibition of the phosphatase activity of rabbit skeletal muscle PP1c with 32P-MLC20 substrate [2]: 3.84 µM
- half-life of dephosphorylation of 10 µM 32P-MLC20 by 100 nM PP1c with 0, 10, 100 and 500 µM peptide (101.6, 149.7, 227.9, 604.06 s); the peptide competes with the substrate P-MLC20 on PP1c [2]: 10.1 min
- half-life of dephosphorylation of 100 µM peptide by 100 nM PP1c in the presence of 10 µM P-MLC20 (dot blot; 87.9 min without P-MLC20) [2]: ~103 min
- Kd [3]: 0.39 ± 0.18 µM
- Kd [4]: 33.2 ± 5.12 µM
